These results are taken from article PMC7973117.

Experiment [1] has as its target heteropentameric α1β mutated (α1βY240A) glycine receptor (rat) (UniProt P07727).
The target of experiment [2] is heteropentameric α1β wild type glycine receptor (rat) (UniProt P07727).

“Interleukin-1β (from UniProt P01584 117-269) (ligand)”: the current decay time constant (τ) of glycine (50 μM)-activated currents after perfusion of IL-1β (10 ng/ml); whole-cell patch clamp, transfected HEK293T cells (Figure 4A) in experiment [1] came out at 3370 ms; in experiment [2] it was 35400 ms.
